Reference: US6784157B2, “Peptides and peptidomimetics with structural similarity to human p53 that activate p53 function” (Bayer Corporation, priority 1995, dated 2004)
Read-outs that look alike come from different tables or passages of the source. Starred links: 1 amine or outer side, 2 acyl side, 3 side chain; linkers in the order of their positions; H or OH if unused. Non-standard residues stand in square brackets, D forms with d. Residues, ends and D or L forms follow the SMILES beside them. No end group written: not given here. X1 = O=C([C@H](CC1C=NC=N1)N[*:1])[*:2]

Key:
human wild-type p53 = biological target: T1, human wild-type p53 (Homo sapiens, UniProt P04637); experiment: p53 DNA binding assay: activation of DNA binding of wild-type p53; format: biochemical; details: for potency in activating DNA binding relative to p53p373-383: 0.4 mM; for activation of binding of wild-type p53: peptide 0.4 mM
T1 construct: Plasmid pGEMhump53wt encodes full-length human wild-type p53; made in house; host or cells: cell-free in vitro transcription and translation from pGEM4-based plasmid

p53 mutant His273 = biological target: T2, p53 mutant His273 (Homo sapiens, UniProt P04637, R273H); experiment: p53 DNA binding assay: activation of DNA binding of mutant His273; format: biochemical; details: oligonucleotide BC
T2 construct: made in house; host or cells: cell-free in vitro transcription and translation from pGEMhump53His273
Method: (§1) The ability of the peptides of this invention to activate DNA binding of human p53 was assayed using a standard DNA binding assay for p53 [Halazonetis et al. (1993), cited above; Halazonetis and Kandil (1993), cited above]. This assay utilizes in vitro translated human wild-type p53 or tumor-derived p53 mutants and specific oligonucleotides containing p53 binding sites. These reagents and methods for preparing them are described below.
Plasmid pGEMhump53wt was used to generate plasmids encoding mutant p53 proteins frequently associated with human cancer. The mutations introduced are those that are most frequently associated with human tumors [Caron de Fromentel et al. (1992), Genes Chrom. Cancer, 4: 1-15]. […]
Plasmids of the pGEMhump53 series were used to produce in vitro transcribed mRNA and subsequently in vitro translated protein, according to standard procedures [Halazonetis et al. (1988), Cell, 55: 917-924]. […] Thus, the presence of slowly migrating DNA, which can be detected by autoradiography, indicates p53 DNA binding [Halazonetis et al. (1993), cited above; Halazonetis and Kandil (1993), cited above]. […]

oligonucleotide BC.V4A = experiment: DNA binding assay of in vitro translated p53 deletion mutants (gel shift)
Method: as §1
Plasmids of the pGEMhump53 series were used to produce in vitro transcribed mRNA and subsequently in vitro translated protein, according to standard procedures [Halazonetis et al. (1988), Cell, 55: 917-924]. The in vitro translated proteins were assayed for DNA binding, as previously described [Halazonetis et al. (1993), cited above, and incorporated herein by reference]. Briefly the in vitro translated protein is incubated with a radioactively labeled oligonucleotide containing a p53 binding site in the presence of non-specific competitor DNA. The reaction mixture is incubated 20 min. at room temperature and directly loaded on a native 5% polyacrylamide electrophoresis gel. In this type of DNA binding assay free DNA migrates to the bottom of the gel, whereas p53/DNA complexes migrate more slowly. Thus, the presence of slowly migrating DNA, which can be detected by autoradiography, indicates p53 DNA binding [Halazonetis et al. (1993), cited above; Halazonetis and Kandil (1993), cited above].
As non-specific competitor DNAs we used 0.1 μg single-stranded oligonucleotide MI7 [[…], SEQ ID NO: 27] and 0.05 μg double-stranded oligonucleotide TF3 [[…], SEQ ID NO: 28] per reaction.
A number of double-stranded oligonucleotides containing p53 binding sites were radioactively labeled for these experiments. […] These three sites are indicated below, and the specific pentanucleotide repeats recognized by p53 are demarcated by hyphens. The sequence of oligonucleotide Ewaf1 (top strand) is: CCC-GAACA-TGTCC-CAACA-TGTTG-GGG [SEQ ID NO: 29]. […]

[1] = oligonucleotide Ewaf1, peptide 0.2-0.3 mM

For `C[C@H]1NC(=O)[C@H](CCCCN)NC(=O)[C@H](CCCCN)NC(=O)[C@H](CC2C=NC=N2)NC(=O)[C@H](CCCNC(=N)N)NC(=O)[C@H](CO)NC1=O` (some centres unmarked) [c[SRHKKa]] (cyclo(KK[dA]SR[X1])), the “efficiency of activation of p53 DNA binding relative to 0.05 mM peptide p53p363-373” value (human wild-type p53; peptide 0.1 mM, assay of Example 2, p53 form and oligonucleotide not stated) was “about two times more efficiently”.

In the case of “Arg Ala His Ser Ser His Leu Lys Ser Lys Lys (Ac-RAHSSHLKSKK-NH2) [p53p363-373]”, the “potency in activating DNA binding relative to p53p373-383” value (human wild-type p53; oligonucleotide Ewaf1) is reported as “somewhat more potent” and the “activation of binding of wild-type p53” value (human wild-type p53; oligonucleotide Ewaf1) is reported as “activated”.

With “Arg Ala His Ser Ser His Leu Lys Ser Lys Lys Gly Gln Ser Thr Ser Arg His Lys Lys Leu Met Phe Lys (Ac-RAHSSHLKSKKGQSTSRHKKLMFK-NH2) [p53p363-386]” the “activation of DNA binding of wild-type p53” value (human wild-type p53; [1]) was “activated”.

“Cys Gly Gly Ser Arg Ala His Ser Ser His Leu Lys Ser Lys Lys Gly Gln Ser Thr Ser Arg His Lys Lys Leu Met Phe Lys (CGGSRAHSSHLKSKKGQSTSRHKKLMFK; also: mixed with deletion peptides lacking Gly/Phe) [p53pC360-386]” was tested, and the “DNA binding activity of p53His273 in presence of peptide” value (p53 mutant His273; peptide 0.2 mM) was “demonstrated DNA binding activity”, the “activation of DNA binding of wild-type p53” value (human wild-type p53; oligonucleotide BC.V4A, 0.02-0.2 mM peptide) was “activated” and the “activation of DNA binding of wild-type p53” value (human wild-type p53; oligonucleotide Ewaf1, concentration not given) was “activated”.

“His Leu Lys Ser Lys Lys Gly Gln Ser Thr Ser Arg His (Ac-HLKSKKGQSTSRH-NH2) [p53p368-380]” was tested, and the “potency in activating DNA binding relative to p53p373-383” value (human wild-type p53; oligonucleotide Ewaf1) was “somewhat more potent” and the “activation of binding of wild-type p53” value (human wild-type p53; oligonucleotide Ewaf1) was “activated”.

“Lys Gly Gln Ser Thr Ser Arg His Lys Lys Leu (Ac-KGQSTSRHKKL-NH2) [p53p373-383]” was tested, and the “activation of binding of wild-type p53” value (human wild-type p53; oligonucleotide Ewaf1) was “activated”.

“Ser Arg Ala His Ser Ser His Leu Lys Ser Lys Lys Gly Gln Ser Thr Ser Arg His Lys Lys Leu Met Phe Lys (Ac-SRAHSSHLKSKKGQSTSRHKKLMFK-NH2) [p53p362-386]” was tested, and the “activation of DNA binding of wild-type p53” value (human wild-type p53; [1]) was “activated”.

In the case of “Ser His Leu Lys Ser Lys Lys Gly Gln Ser Thr Ser Arg His Lys Lys Leu Met Phe Lys (Ac-SHLKSKKGQSTSRHKKLMFK-NH2) [p53p367-386]”, the “activation of DNA binding of wild-type p53” value (human wild-type p53; [1]) is reported as “activated”.

“Ser Lys Lys Gly Gln Ser Thr Ser Arg His Lys Lys Leu (SKKGQSTSRHKKL) [p53p371-383]” was tested, and the “DNA binding activity of p53His273 in presence of peptide” value (p53 mutant His273; peptide 0.4 mM) was “demonstrated DNA binding activity” and the “activation of DNA binding of wild-type p53” value (human wild-type p53; oligonucleotide BC.V4A, peptide 0.2-0.4 mM) was “activated”.

“p53D356-393: human wild-type p53 with deletion of residues 356-393, in vitro translated” was tested, and the “Binding of Mutant p53 to BC.V4A DNA” value (oligonucleotide BC.V4A) was “activated”.

In the case of “p53D364-393: human wild-type p53 with deletion of residues 364-393, in vitro translated”, the “Binding of Mutant p53 to BC.V4A DNA” value (oligonucleotide BC.V4A) is reported as “activated” and the “Binding of Mutant p53 to BC.V4A DNA” value (oligonucleotide BC.V4A; listed as pGEMhump53D364-393) is reported as “activates DNA binding”.
